# Laboratory results as given in patent publication US20220259593A1, “CONTROL OF MAMMALIAN GENE DOSAGE USING CRISPR” (The Regents of the University of California, priority 2019, published 2022).
# B1: cr691 (nucleic acid)
# guide: GTTTAAGAGCTAAGCTGGAAACAGCATAGCAAGTTTAAATAAGGCTAGTCCGTTATCAACTTGAAAAAGTGGGCCCGAGTCGGGCCT
# modifications: listed as DNA, chemistry not fully specified
# B2: cr821 (nucleic acid)
# guide: GTTTAAGAGCTAAGCTGGAAACAGCGTAGCAAGTTTAAATAAGGCTAGTCCGTTATCAACTTGAAAAAGTGGCACCGAGTCGGTGCT
# modifications: listed as DNA, chemistry not fully specified
# B3: cr796 (nucleic acid)
# guide: GTTTAAGAGCTAAGCTGGAAACAGCATAGCAAGTTAAAATAAGGCTAGTCCGTTATCAACTTGAAAAAGTGGCACCGAGTCGGTGCT
# modifications: listed as DNA, chemistry not fully specified
# B4: cr401 (nucleic acid)
# guide: GTTTAAGAGCTAAGCTGGAAACAGCATAGCAAGTTTAAATAAGGCTAGTCCGTTATCAACTTGAAAAAGTGGCTCCGAGTCTGCGCT
# modifications: listed as DNA, chemistry not fully specified
# B5: cr580 (nucleic acid)
# guide: GTTTAAGAGCTAAGCTGGAAACAGCATAGCAAGTTTAGATAAGGCTAGTCCGTTATCAACTTGAAAAAGTGGCACCGAGTCGGTGCT
# modifications: listed as DNA, chemistry not fully specified
# B6: cr538 (nucleic acid)
# guide: GTTTAAGAGCTAAGCTGGAAACAGCATAGCAAGCTTAAATAAGACTAGTTCGTTATCAACTTGAAAAAGTGGCACCGAGTCGGTGCT
# modifications: listed as DNA, chemistry not fully specified
# B7: cr062 (nucleic acid)
# guide: GTTCAAGTGCTAAGCTGGAAACAGCATAGCAAGTTTAAATAAGGCTAGTCCGTTATCAACTTGAAAAAGTGGCACCGAGTCGGTGCT
# modifications: listed as DNA, chemistry not fully specified
# B8: cr084 (nucleic acid)
# guide: GTCTGAGAGCTAAGCTGGAAACAGCATAGCAAGTTTAAATAAGGCTAGTCCGTTATCAACTTGAAAAAGTGGCACCGAGTCGGTGCT
# modifications: listed as DNA, chemistry not fully specified
# B9: cr087 (nucleic acid)
# guide: CTTTGAGAGCTAAGCTGGAAACAGCATAGCAAGTTTAAATAAGGCTAGTCCGTTATCAACTTGAAAAAGTGGCACCGAGTCGGTGCT
# modifications: listed as DNA, chemistry not fully specified
# B10: cr513 (nucleic acid)
# guide: GTTTAAGAGCTAAGCTGGAAACAGCATAGCAACTTTAAATAAGGCTAGTCCGTTATCACCTTGAAAAAGGGGCACCGAGTCGGTGCT
# modifications: listed as DNA, chemistry not fully specified
# B11: cr288 (nucleic acid)
# guide: GTTTAAGAGCTAAGCTGGAAACAGCATAGCAACTTTAAATAAGGCTAGTCCGTTATCAACTGGAAACAGTGGCACCGAGTCGGTGCT
# modifications: listed as DNA, chemistry not fully specified
# B12: cr290 (nucleic acid)
# guide: GTTTAAGAGCTAAGCTGGAAACAGCATAGCAAGTTTAAATAAGGCTAGTCCATTATCAACTTGAAAAAGTTGCACCGAGTCGGTGCT
# modifications: listed as DNA, chemistry not fully specified
# B13: cr453 (nucleic acid)
# guide: GTTTAAGAGCTAAGCTGGAAACAGCATAGCAAGTTTAACTAAGGCTAGTCCGTTATCAACTTGAAAAAGTGGCACCGAGTCGGTGCT
# modifications: listed as DNA, chemistry not fully specified
# B14: cr411 (nucleic acid)
# guide: GTTTAAGAGCTAAGCTGGAAACAGCATAGCAAGTTTAAATAAGACTAGTCCGTTATCAACTTGAAAAAGTGGCACCGAGTCGGTGCT
# modifications: listed as DNA, chemistry not fully specified
# B15: cr727 (nucleic acid)
# guide: GTTTAAGAGCTAAGCTGGAAACAGCATAGCAAGTTTAAATAAGGCTAGTCCGTTATCAACTTGAAAAAGTGTCGCCGAGTCGGCGAT
# modifications: listed as DNA, chemistry not fully specified
# B16: cr798 (nucleic acid)
# guide: GTTTAAGAGCTAAGCTGGAAACAGCATAGCAAGTTTAAATAAGGATATTCCGTTATCAACTTGAAAAAGTGGCATCCAGTGGATGCT
# modifications: listed as DNA, chemistry not fully specified
# B17: cr059 (nucleic acid)
# guide: GGTTAAAAGCTAAGCTGGAAACAGCATAGCAAGTTTAAATAAGGCTAGTCCGTTATCAACTTGAAAAAGTGGCACCGAGTCGGTGCT
# modifications: listed as DNA, chemistry not fully specified
# B18: cr881 (nucleic acid)
# guide: GTTTAAGAGCTAAGCTGGAAACAGCATAGCAAGTTTAAATAAGGCTAGTCCTTTAACAACTTGAAAAAGTGGCACCGAGTCGGTGCT
# modifications: listed as DNA, chemistry not fully specified
# B19: cr872 (nucleic acid)
# guide: GTTTAAGAGCTAAGCTGGAAACAGCATAGCAAGTTTAAATAAGGCTATTCCGTTATCAACTTGAAAAAGTGGCACCGAGTCGGTGCT
# modifications: listed as DNA, chemistry not fully specified
# B20: cr560 (nucleic acid)
# guide: GTTTAAGAGCTAAGCTGGAAACAGCATAGCAAGCTTAAATAAGGCTAGTCCGTTATCAACTTGAAAAAGTGGCACTGAGTCAGTGCT
# modifications: listed as DNA, chemistry not fully specified
# B21: cr089 (nucleic acid)
# guide: GTTTATAAGCTAAGCTGGAAACAGCATAGCAAGTTTAAATAAGGCTAGTCCGTTATCAACTTGAAAAAGTGGCACCGAGTCGGTGCT
# modifications: listed as DNA, chemistry not fully specified
# B22: cr259 (nucleic acid)
# guide: GTTTAAGAGCTAAGCTGGAAACAGCATAGCAAGTTTAAATAAGGCTAGTCCGTTATGTACTTCAAAAAGTGGCACCGAGTCGGTGCT
# modifications: listed as DNA, chemistry not fully specified
# B23: cr257 (nucleic acid)
# guide: GTTTAAGAGCTAAGCTGGAAACAGCATAGCAAGTTTAAATCAGGCTAGTCCGTTATCAACTTGAAAAAGTTGCACCGAGTCGGTGCT
# modifications: listed as DNA, chemistry not fully specified
# B24: cr274 (nucleic acid)
# guide: GTTTAAGAGCTAAGCTGGAAACAGCATAGCAACTTTAAATAAGGCTAGTCCGTTATCAACCTGAAAAGGTGGCACCGAGTCGGTGCT
# modifications: listed as DNA, chemistry not fully specified
# B25: cr761 (nucleic acid)
# guide: GTTTAAGAGCTAAGCTGGAAACAGCATAGCTAGTTTAAATAAGGCTAGTCCGTTGTCTACTTGAAAAAGTGGCACCGAGTCGGTGCT
# modifications: listed as DNA, chemistry not fully specified
# B26: cr490 (nucleic acid)
# guide: GTTTAAGAGCTAAGCTGGAAACAGCATAGCAAGTTTAAATAAGGCTAGTCCGTTATCAAATTGAAAAATTGGCGCCCAGTGGGCGCT
# modifications: listed as DNA, chemistry not fully specified
# B27: cr461 (nucleic acid)
# guide: GTTTAAGAGCTAAGCTGGAAACAGCATAGCAAGTTTAAATAAGGCTAGTCCTTAATCAACTTGAAGAAGTGGCACCGAGTCGGTGCT
# modifications: listed as DNA, chemistry not fully specified
# B28: cr091 (nucleic acid)
# guide: GTTTTACAGCTAAGCTGGAAACAGCATAGCAAGTTTAAATAAGGCTAGTCCGTTATCAACTTGAAAAAGTGGCACCGAGTCGGTGCT
# modifications: listed as DNA, chemistry not fully specified
# B29: cr395 (nucleic acid)
# guide: GTTTAAGAGCTAAGCTGGAAACAGCATAGCAAGTTTAAATATGGCTAGTCCGTTATCAACTTGAAAAAGTAGCACCGAATCGGTGCT
# modifications: listed as DNA, chemistry not fully specified
# B30: cr390 (nucleic acid)
# guide: GTTTAAGAGCTAAGCTGGAAACAGCATAGCAAATTTAAATAAGGCTAGTCCGTTATCAACTTGAAAAAGTAGCACCGAGTCGGTGCT
# modifications: listed as DNA, chemistry not fully specified
# Test system: K562 CRISPRi cells
# Experiment: Constant region variant library pooled growth screen, K562
# Format: cell-based, human
# Conditions: sgRNA constant region variants; activity relative to the original, un-modified constant region cr995
# How it was run: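 Cells were selected with puromycin for 2 days and then kept in RPMI-1640 spinner cultures, with duplicates handled separately. Targeting sequences comprised 3 sgRNAs per essential gene for 10 genes plus six non-targeting controls. Activities were normalized against pairing with the unmodified scaffold.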
row,Molecule,Mean relative activity
1,B1,1.038
2,B2,1.038
3,B3,0.096
4,B4,0.09781
5,B5,0.1076
6,B6,0.1104
7,B7,0.1003
8,B8,0.09372
9,B9,0.1041
10,B10,0.0947
11,B11,0.1016
12,B12,0.1027
13,B13,0.09528
14,B14,0.1086
15,B15,1.037

# Same assay, conditions: sgRNA constant region variants; activity relative to the unmodified constant region cr995
row,Molecule,Mean relative activity
1,B16,0.1361
2,B17,0.1106
3,B18,0.1367
4,B19,0.1317
5,B20,0.1347
6,B21,0.1183
7,B22,0.1243
8,B23,0.1109
9,B24,0.1303
10,B25,0.1369
11,B26,0.1317
12,B27,0.1147
13,B28,0.1366
14,B29,0.1397
15,B30,0.1354
